Target: T1, DSP_linker (Homo sapiens (Human), UniProt P15924)
T1 chain: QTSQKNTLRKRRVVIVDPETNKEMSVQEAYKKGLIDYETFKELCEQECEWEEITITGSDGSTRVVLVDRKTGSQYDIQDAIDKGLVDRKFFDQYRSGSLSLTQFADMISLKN
Experiment: MST

B1: VIM_rod (protein)
chain 1: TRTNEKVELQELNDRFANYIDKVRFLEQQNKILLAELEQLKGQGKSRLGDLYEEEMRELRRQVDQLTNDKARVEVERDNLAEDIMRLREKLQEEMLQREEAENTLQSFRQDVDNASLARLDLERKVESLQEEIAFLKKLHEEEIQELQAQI
chain 2: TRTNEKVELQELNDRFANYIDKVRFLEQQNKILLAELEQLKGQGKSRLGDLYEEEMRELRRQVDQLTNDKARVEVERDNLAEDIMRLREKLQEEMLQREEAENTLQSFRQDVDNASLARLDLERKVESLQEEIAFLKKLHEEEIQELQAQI
- Kd: > 800 µM
